Source: publication PMC10764318

Experiments:
Assay in all cases: BLI
[1] = target: WRAIR-5001 (rhesus macaque | human)
[2] = target: WRAIR-5001 (rhesus macaque)
[3] = target: WRAIR-5004 (rhesus macaque)
[4] = target: WRAIR-5005 (rhesus macaque)
[5] = target: WRAIR-5011 (rhesus macaque)
Sequence of WRAIR-5011 (rhesus macaque) (VH, as listed by the source, chain 1 of 2): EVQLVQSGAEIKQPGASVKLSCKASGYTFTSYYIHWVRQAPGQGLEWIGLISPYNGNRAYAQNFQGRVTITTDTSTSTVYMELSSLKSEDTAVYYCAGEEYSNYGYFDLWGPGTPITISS
Sequence of WRAIR-5011 (rhesus macaque) (VL, as listed by the source, chain 2 of 2): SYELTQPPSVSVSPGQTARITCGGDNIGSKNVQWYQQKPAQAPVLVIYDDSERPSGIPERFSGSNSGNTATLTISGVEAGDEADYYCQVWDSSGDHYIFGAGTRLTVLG

Sequence of WRAIR-5005 (rhesus macaque) (VH, as listed by the source, chain 1 of 2): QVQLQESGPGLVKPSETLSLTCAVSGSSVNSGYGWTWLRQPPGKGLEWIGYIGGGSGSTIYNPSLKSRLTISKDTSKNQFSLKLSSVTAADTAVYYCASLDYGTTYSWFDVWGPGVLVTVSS
Sequence of WRAIR-5005 (rhesus macaque) (VL, as listed by the source, chain 2 of 2): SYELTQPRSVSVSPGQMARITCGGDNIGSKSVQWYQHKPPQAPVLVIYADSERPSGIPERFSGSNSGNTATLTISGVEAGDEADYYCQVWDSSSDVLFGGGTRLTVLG
Sequence of WRAIR-5004 (rhesus macaque) (VH, as listed by the source, chain 1 of 2): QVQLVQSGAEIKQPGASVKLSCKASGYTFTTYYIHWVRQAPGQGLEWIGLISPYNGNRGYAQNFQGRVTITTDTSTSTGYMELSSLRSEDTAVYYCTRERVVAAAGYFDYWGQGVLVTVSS
Sequence of WRAIR-5004 (rhesus macaque) (VL, as listed by the source, chain 2 of 2): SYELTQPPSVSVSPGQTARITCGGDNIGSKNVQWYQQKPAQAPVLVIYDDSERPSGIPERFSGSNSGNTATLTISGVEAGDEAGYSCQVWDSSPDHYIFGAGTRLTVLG
Sequence of WRAIR-5001 (rhesus macaque) (VH, as listed by the source, chain 1 of 2): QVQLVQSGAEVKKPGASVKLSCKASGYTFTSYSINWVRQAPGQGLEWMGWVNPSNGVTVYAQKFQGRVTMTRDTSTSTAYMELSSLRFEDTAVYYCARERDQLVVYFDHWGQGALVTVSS
Sequence of WRAIR-5001 (rhesus macaque) (VL, as listed by the source, chain 2 of 2): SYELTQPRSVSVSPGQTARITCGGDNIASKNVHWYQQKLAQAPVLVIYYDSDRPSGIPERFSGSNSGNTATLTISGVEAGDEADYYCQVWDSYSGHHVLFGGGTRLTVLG

SARS-CoV-1 RBD (domain or fragment) was tested, and the Kd [1] was 3.45 nM, the koff [2] was 0.00061 s⁻¹ and the kon [2] was 177000 M⁻¹ s⁻¹. It also gave a Kd [3] of 28.9 nM, a koff [3] of 0.00458 s⁻¹ and a kon [3] of 158000 M⁻¹ s⁻¹. For the same substance, the Kd [4] was 154 nM, the koff [4] was 0.00318 s⁻¹ and the kon [4] was 20700 M⁻¹ s⁻¹. The Kd [5] was 12.7 nM, the koff [5] was 0.0014 s⁻¹ and the kon [5] was 110000 M⁻¹ s⁻¹.
